# Experimental data reported in patent publication US20260273049A1 (ALLIGATOR BIOSCIENCE, published 2026).
# Numbering of substitutions follows the chain as printed.
# T1: human CEACAM5 (hCEACAM-5, #4128-CM-050, R&D Systems) (human, UniProt P06731 35-685)
# T1 construct: Bought protein; also called Human CEACAM5-His; monomeric human CEACAM5-His
# T1 sequence (looked up): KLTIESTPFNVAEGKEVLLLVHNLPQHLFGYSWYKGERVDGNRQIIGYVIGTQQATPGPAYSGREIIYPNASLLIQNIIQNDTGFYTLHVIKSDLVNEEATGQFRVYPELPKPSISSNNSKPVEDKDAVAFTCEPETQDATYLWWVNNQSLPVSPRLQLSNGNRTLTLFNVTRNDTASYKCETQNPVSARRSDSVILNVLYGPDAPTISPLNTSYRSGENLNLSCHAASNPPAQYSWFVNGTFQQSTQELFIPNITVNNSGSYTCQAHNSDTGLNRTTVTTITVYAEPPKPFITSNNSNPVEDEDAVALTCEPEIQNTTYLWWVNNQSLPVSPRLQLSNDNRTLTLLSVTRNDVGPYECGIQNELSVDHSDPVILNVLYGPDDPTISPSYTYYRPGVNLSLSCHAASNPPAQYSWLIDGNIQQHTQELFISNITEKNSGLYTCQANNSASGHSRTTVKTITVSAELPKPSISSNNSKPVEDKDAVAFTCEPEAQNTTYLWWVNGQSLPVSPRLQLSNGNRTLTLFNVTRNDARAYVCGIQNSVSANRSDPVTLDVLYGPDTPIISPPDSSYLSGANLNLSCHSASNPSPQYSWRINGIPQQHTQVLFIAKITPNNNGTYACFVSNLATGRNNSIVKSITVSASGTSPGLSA
# T2: CEACAM-8 (#9639-CM-050, R&D Systems) (UniProt P31997 35-320, limits assumed)
# T2 construct: Bought protein
# T2 sequence (looked up): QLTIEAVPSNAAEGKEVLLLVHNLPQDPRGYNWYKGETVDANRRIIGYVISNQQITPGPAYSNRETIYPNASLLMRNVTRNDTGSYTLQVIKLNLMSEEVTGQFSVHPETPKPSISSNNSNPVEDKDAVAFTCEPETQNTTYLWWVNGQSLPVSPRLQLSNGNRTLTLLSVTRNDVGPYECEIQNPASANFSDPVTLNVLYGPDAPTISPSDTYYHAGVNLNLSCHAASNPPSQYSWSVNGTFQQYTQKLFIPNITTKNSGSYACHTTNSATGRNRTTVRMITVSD
# T3: human CEACAM1 expressed on CHO cells (human, UniProt P13688 35-526)
# T3 construct: whole, on cells; also called CHO-CEACAM1; CEACAM1 on cells
# T3 sequence (looked up): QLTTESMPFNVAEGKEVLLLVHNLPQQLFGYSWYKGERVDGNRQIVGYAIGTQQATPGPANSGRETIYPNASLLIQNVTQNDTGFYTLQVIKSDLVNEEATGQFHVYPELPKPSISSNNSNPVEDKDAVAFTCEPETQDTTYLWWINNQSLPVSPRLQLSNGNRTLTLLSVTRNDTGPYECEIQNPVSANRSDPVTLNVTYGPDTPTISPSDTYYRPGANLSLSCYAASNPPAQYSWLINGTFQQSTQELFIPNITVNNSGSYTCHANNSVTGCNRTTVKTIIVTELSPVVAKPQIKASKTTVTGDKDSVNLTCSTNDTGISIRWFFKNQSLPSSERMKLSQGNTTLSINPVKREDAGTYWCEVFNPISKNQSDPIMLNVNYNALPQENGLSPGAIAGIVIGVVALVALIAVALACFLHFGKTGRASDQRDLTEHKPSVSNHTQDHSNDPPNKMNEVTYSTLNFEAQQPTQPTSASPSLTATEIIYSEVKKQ
# T4: human CEACAM5 expressed on cells (CHO-CEACAM5; MKN45, LS174T tumor cells) (human, UniProt P06731 35-685, GPI anchor on the C-terminal residue (685); heavily N-glycosylated)
# T4 construct: also called CEACAM5 on cells; CEA expressed on cells
# T4 sequence: T1 sequence (looked up)
# B1: Multi39 (bispecific antibody)
# heavy 1: not shown
# light: not shown
# heavy 2: EVQLLESGGGLVQPGGSLRLSCAASGFTFYDHAMSWVREAPGKGLEWVSAISGSYGSTGYADSVKGRFTISRDNSKNTLYLQMNSLRAEDTAVYYCARWGGWAGDIDYWGQGTLVTVSSASTKGPSVFPLAPSSKSTSGGTAALGCLVKDYFPEPVTVSWNSGALTSGVHTFPAVLQSSGLYSLTSVVEVPSSSLGTQTYICNVNHKPSNTKVDKKVEPKSC
# notes: Optimized RUBY format; copies: 2 + 2 + 2
# B2: ffAC_05337 (bispecific antibody, human IgG1, kappa, L234A L235A)
# heavy: not shown
# light: DIQMTQSPSSLSASVGDRVTITCRASQSISSYLNWYQEKPGKAPKLLIYAASSLQSGVPSRFSGSGSGTDFTLTISSLQPEDFATYYCQQAGNPHTFGQGTKLEIKRTVAAPSVFIFPPSDEQLKSGTASVVCYLNNFYPREAKVQWKVDNALQSGNSQESVTEQDSKDSTYSLWSTLTLSKADYEKHKVYACEVTHQGLSSPVTKSFNRGEC
# chain: EVQLLESGGGLVQPGGSLRLSCAASGFTFSTYGMHWVREAPGKGLEWLSYISGGSSYIFYADSVKGRFTISRDNSKNTLYLQMNSLRAEDTAVYYCARILRGGSGMDLWGQGTLVTVSSASTKGPSVFPLAPSSKSTSGGTAALGCLVKDYFPEPVTVSWNSGALTSGVHTFPAVLQSSGLYSLTSVVEVPSSSLGTQTYICNVNHKPSNTKVDKKVEPKSC
# B3: Multi40 (bispecific antibody)
# heavy 1: not shown
# light: DIQMTQSPSSLSASVGDRVTITCRASQSISSYLNWYQEKPGKAPKLLIYAASSLQSGVPSRFSGSGSGTDFTLTISSLQPEDFATYYCQQSSHGPLLTFGQGTKLEIKRTVAAPSVFIFPPSDEQLKSGTASVVCYLNNFYPREAKVQWKVDNALQSGNSQESVTEQDSKDSTYSLWSTLTLSKADYEKHKVYACEVTHQGLSSPVTKSFNRGEC
# heavy 2: B2 chain
# notes: as for B1
# B4: Multi41 (bispecific antibody)
# heavy 1: not shown
# light: DIQMTQSPSSLSASVGDRVTITCRASQSISSYLNWYQEKPGKAPKLLIYAASSLQSGVPSRFSGSGSGTDFTLTISSLQPEDFATYYCQQWRSHLFTFGQGTKLEIKRTVAAPSVFIFPPSDEQLKSGTASVVCYLNNFYPREAKVQWKVDNALQSGNSQESVTEQDSKDSTYSLWSTLTLSKADYEKHKVYACEVTHQGLSSPVTKSFNRGEC
# heavy 2: B2 chain
# notes: as for B1
# B5: Multi42 (bispecific antibody, human IgG1, kappa, L234A L235A)
# heavy: not shown
# light: EIVLTQSPGTLSLSPGERATLSCRASQSVSSSYLAWYQEKPGQAPRLLIYGASSRATGIPDRFSGSGSGTDFTLTISRLEPEDFAVYYCQQYWYPLTFGQGTKLEIKRTVAAPSVFIFPPSDEQLKSGTASVVCYLNNFYPREAKVQWKVDNALQSGNSQESVTEQDSKDSTYSLWSTLTLSKADYEKHKVYACEVTHQGLSSPVTKSFNRGEC
# chain: B2 chain
# B6: AC_05337 (bispecific antibody)
# heavy 1: not shown
# light: B2 light
# heavy 2: B2 chain with K65R, K76E, T78A, T185S
# Key:
# [1] = biological target: T1, human CEACAM5 (hCEACAM-5, #4128-CM-050, …); assay: ELISA; antigen coated at 0.5 µg/mL, bsAb titrated, anti-human kappa-HRP, luminescence [3/7) Multi39]
# Method: (§1) 96-well plates were coated with 0.5 μg/mL antigen, hCEACAM-1 (2244-CM-050, R&D Systems), hCEACAM-5 (4128-CM-050, R&D Systems), hCEACAM-6 (3934-CM-050, R&D Systems) or CEACAM-8 (9639-CM-050, R&D Systems) in PBS over night at 4° C. After washing in PBS/0.05% Tween 20 (PBST), the plates were blocked with PBST, 2% BSA for at least 30 minutes at room temperature before a second round of washing. RUBY bsAbs, diluted in PBST, 0.5% BSA, were then added and allowed to bind for at least 1 hour at room temperature. […] Finally, a final round of washing was performed and bound complexes detected using SuperSignal Pico Luminescent as substrate and luminescence signals were measured using Fluostar Optima.
# [2] = biological target: human CD40 expressed on cells (CD40 reporter cells, HEK Blue CD40L cells, B cells, Raji cells) (human, UniProt P25942 21-277); assay: cell-based or functional assay
# Sequence of human CD40 expressed on cells (CD40 reporter cells, HEK Blue CD40L cells, B cells, Raji cells) (P25942 21-277): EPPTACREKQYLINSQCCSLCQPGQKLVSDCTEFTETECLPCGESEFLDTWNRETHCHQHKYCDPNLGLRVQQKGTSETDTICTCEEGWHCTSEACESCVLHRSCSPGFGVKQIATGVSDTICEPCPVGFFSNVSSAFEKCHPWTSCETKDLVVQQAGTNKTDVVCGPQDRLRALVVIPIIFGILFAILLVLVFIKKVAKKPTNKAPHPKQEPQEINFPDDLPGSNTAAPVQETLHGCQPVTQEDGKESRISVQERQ
# [3] = biological target: T1, human CEACAM5 (hCEACAM-5, #4128-CM-050, …); assay: dual target ELISA; hCEACAM-5 coated, bsAb titrated, detection with biotinylated hCD40-muIg and streptavidin-HRP, luminescence; signal needs both targets [1/2) B]
# Method: as §1
# [4] = biological target: T2, CEACAM-8 (#9639-CM-050, R&D Systems); assay: ELISA; antigen coated at 0.5 µg/mL, bsAb titrated, anti-human kappa-HRP, luminescence [3/7) Multi40]
# Method: as §1
# [5] = biological target: T3, human CEACAM1 expressed on CHO cells; assay: flow cytometry on CEACAM1-transfected CHO cells, fluorochrome-conjugated anti-human IgG [1/2) B]
# Source text: The human CEACAM5 and CEACAM1 genes were cloned into pcDNA3.1, and the vector was subsequently stably transfected into CHO cells. […] Binding of the antibodies was detected using fluorochrome-conjugated anti-human IgG and analyzed using flow cytometry.
# [6] = biological target: T4, human CEACAM5 expressed on cells …; assay: flow cytometry on LS174T tumor cells (intermediate CEACAM5), fluorochrome-conjugated anti-human IgG [2/3) E]
"EC50 (nM), HEK Blue CD40L SEAP reporter, CHO-CEACAM5 crosslinking, 0 Raji sink cells/well [2] [nM]","EC50 (nM), HEK Blue CD40L SEAP reporter, CHO-CEACAM5 crosslinking, 10 000 Raji sink cells/well [2] [nM]","EC50 (nM), HEK Blue CD40L SEAP reporter, CHO-CEACAM5 crosslinking, 30 000 Raji sink cells/well [2] [nM]","EC50 (nM), HEK Blue CD40L SEAP reporter, CHO-CEACAM5 crosslinking, 90 000 Raji sink cells/well [2] [nM]",also measured,Binder
,,,,EC50 (read off the curve) [1]: 1000 to 2000 pM,B1
0.04,0.08,0.11,0.41,,B2
,,,,EC50 (read off the curve) [3]: ~600 pM; binding result [4]: no binding (tested: 100 nM),B3
0.03,0.06,0.13,0.36,binding result [5]: no binding (tested: 400 nM),B4
0.04,0.06,0.11,0.36,,B5
,,,,EC50 (read off the curve) [6]: ~4000 pM,B6
